According to PMC10377000, “LSPR-Based Aptasensor for Rapid Urinary Detection of NT-proBNP”:

Biological target: NT-proBNP (UniProt P16860)
Test: AuNP aggregation (LSPR, A750/A521), Hill fit; diluted urine; Hill n = 0.0751; NT-proBNP in 5 mM PBS pH 7.4; aptamer in 10 mM Tris-HCl, 0.2 mM EDTA (0.25 uM in assay); 15 min incubation; then citrate AuNPs and 40 uL 0.2 M NaCl; 25 C stated for CD sample only
Settings: protein: commercial; antiparallel G4 proposed from CD

NT-proBNP, sequence (P16860 27-134): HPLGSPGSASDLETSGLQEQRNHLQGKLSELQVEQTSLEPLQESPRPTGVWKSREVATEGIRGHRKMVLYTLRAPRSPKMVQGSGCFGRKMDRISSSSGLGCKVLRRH

B1: NT-proBNP aptamer (structured_DNA)
DNA: GGCAGGAAGACAAACAGGTCGTAGTGAAACTGTCCACCGTAGACCGGTTATCTGTTGGTCTGTGGTGCTGT
Kd: 2.71 nM
